Reference: publication PMC5849714, “Direct coupling of detergent purified human mGlu5 receptor to the heterotrimeric G proteins Gq and Gs” (Scientific Reports, 2018)
Residue numbers refer to the chain shown, from its start.

Assays:
[1] = biological target: the molecule itself; assay: non-reducing SDS-PAGE; SNAP-Red-labelled receptor extracted from HEK293 cells with detergent, non-purified material; non-reducing conditions; fluorescence scan of the gel
[2] = biological target: the molecule itself; assay: non-reducing SDS-PAGE; purified receptor from Sf9 after SEC, Coomassie-blue stained gel; bands identified by mass spectrometry; reducing reagent raised the monomer band

B1: SNAP-mGlu5-Δ856 (FLAG-SNAP-tagged human mGlu5 receptor truncated after A856) (receptor, UniProt P41594-2 21-856, looked up)
chain: QSSERRVVAHMPGDIIIGALFSVHHQPTVDKVHERKCGAVREQYGIQRVEAMLHTLERINSDPTLLPNITLGCEIRDSCWHSAVALEQSIEFIRDSLISSEEEEGLVRCVDGSSSSFRSKKPIVGVIGPGSSSVAIQVQNLLQLFNIPQIAYSATSMDLSDKTLFKYFMRVVPSDAQQARAMVDIVKRYNWTYVSAVHTEGNYGESGMEAFKDMSAKEGICIAHSYKIYSNAGEQSFDKLLKKLTSHLPKARVVACFCEGMTVRGLLMAMRRLGLAGEFLLLGSDGWADRYDVTDGYQREAVGGITIKLQSPDVKWFDDYYLKLRPETNHRNPWFQEFWQHRFQCRLEGFPQENSKYNKTCNSSLTLKTHHVQDSKMGFVINAIYSMAYGLHNMQMSLCPGYAGLCDAMKPIDGRKLLESLMKTNFTGVSGDTILFDENGDSPGRYEIMNFKEMGKDYFDYINVGSWDNGELKMDDDEVWSKKSNIIRSVCSEPCEKGQIKVIRKGEVSCCWTCTPCKENEYVFDEYTCKACQLGSWPTDDLTGCDLIPVQYLRWGDPEPIAAVVFACLGLLATLFVTVVFIIYRDTPVVKSSSRELCYIILAGICLGYLCTFCLIAKPKQIYCYLQRIGIGLSPAMSYSALVTKTNRIARILAGSKKKICTKKPRFMSACAQLVIAFILICIQLGIIVALFIMEPPDIMHDYPSIREVYLICNTTNLGVVTPLGYNGLLILSCTFYAFKTRNVPANFNEAKYIAFTMYTTCIIWLAFVPIYFGSNYKIITMCFSVSLSATVALGCMFVPKVYIILAKPERNVRSAFTTSTVVRMHVGDGKSSSAA
modifications: SNAP tag labelled with a cell-impermeant red fluorophore (SNAP-Red)
notes: metabotropic glutamate receptor 5 (mGlu5), human, truncated after A856 by a stop codon; Construct from Cisbio Bioassays; the SNAP tag is extracellular; also called SNAP-Tag C-terminal mGlu5-Δ856 receptor; hmGlu5-ΔCter-A856; source: HEK293, transiently transfected; extracted with MNG3/CHS, not purified; on cells in the cAMP assay
stoichiometry N [1]: 2

B2: mGlu5-Δ856-eGFP (receptor, human, UniProt P41594-2 21-856, looked up)
chain: B1 chain with N425A
notes: metabotropic glutamate receptor 5 (mGlu5), human, truncated after A856; GP64 signal peptide (AcNPV) at the N-terminus; TEV protease site between receptor and eGFP, then 10x His; Theoretical MW printed: monomer 124,784 Da; also called mGlu5-eGFP; not shown: eGFP, C-terminal, kept
stoichiometry N [2]: 2
